Assay results from the RNAGym collection of RNA variant scans (doi:10.7554/elife.80360).

B1: Hairpin Ribozyme (parent)
chain: GUCCUCUUUCACGUGCGCGUGAAAGAGAGAAGUGAACCAGAGAAACACACGUUGUGGUAUAUUACCUGGUA

Variants of: B1
Assay: self-cleavage, relative activity (ratio to wild type); higher = more cleavage; co-transcriptional

| Variant | self-cleavage |
| --- | --- |
| A28C A47U | 0.0267 |
| A28C G69C | 0.262 |
| A28C G69A | 0.168 |
| A28C A44G | 0.0991 |
| A28C A44C | 0.134 |
| A28G A41G | 0.908 |
| A28G A41C | 0.961 |
| G27A G69C | 0.198 |
| A28C C37A | 0.166 |
| G27U A39C | 0.107 |
| G27U A39U | 0.144 |
| A28C U53C | 0.598 |
| A26U U63A | 0.127 |
| A26U G27C | 0.177 |
| G27A U60C | 0.657 |
| A26U G54C | 0.305 |
| G27A A49G | 0.237 |
| G27A A49U | 0.112 |
| G27A A49C | 0.154 |
| A26U U58G | 0.631 |
| A28G A35U | 1.13 |
| G27U U53G | 0.23 |
| G27U G68A | 0.128 |
| A28C A35C | 0.864 |

| Variant | self-cleavage |
| --- | --- |
| A28C A35G | 0.445 |
| A28C A35U | 0.295 |
| A26C U70G | 0.509 |
| A26U A41C | 0.776 |
| A26G A43U | 0.121 |
| G27A U67C | 0.141 |
| A28G G42A | 0.21 |
| A28G A47C | 0.42 |
| A28G A47U | 0.192 |
| G27A A47C | 0.214 |
| G27U G56C | 0.149 |
| G27U A28G | 0.119 |
| A28U A35G | 0.599 |
| A28U A35C | 0.704 |
| A28G U67A | 0.31 |
| A26C C50U | 0.306 |
| A28C U33C | 0.107 |
| A28G C65G | 0.409 |
| A28G C65A | 0.884 |
| G27U A43U | 0.106 |
| A26G A71C | 1.55 |
| A26U U33A | 0.148 |
| A26U U33C | 0.141 |
| A26G U63G | 0.183 |

| Variant | self-cleavage |
| --- | --- |
| A26G C50G | 0.211 |
| G27A C66A | 0.204 |
| A26G G27C | 0.215 |
| G27U C46U | 0.12 |
| A26U A49G | 0.41 |
| A26U A49U | 0.0963 |
| A28G A64G | 0.425 |
| A26G A49C | 0.148 |
| A26G A49U | 0.288 |
| G27C A59U | 0.16 |
| A26U C37G | 0.185 |
| A26U C37A | 0.243 |
| G27A A61U | 0.155 |
| A26U G51U | 0.614 |
| A26U G51C | 0.447 |
| A26U G51A | 0.661 |
| G27C A41U | 0.367 |
| G27C A41C | 0.228 |
| A26U U53G | 0.489 |
| A28U A41C | 1.13 |
| A26G C46G | 0.19 |
| A28C A31C | 0 |
| A28U A59G | 0.243 |
| G27U U70C | 0.105 |

| Variant | self-cleavage |
| --- | --- |
| A26C U60A | 0.659 |
| A26G C38A | 0.131 |
| G27U A45C | 0.0886 |
| G27U A45G | 0.131 |
| G27U A45U | 0.0868 |
| G27A G42C | 0.145 |
| G27C U70C | 0.132 |
| G27C U70A | 0.319 |
| G27C A30G | 0.172 |
| A26C G51A | 0.67 |
| G27A A28U | 0.393 |
| G27U A35G | 0.228 |
| G27U A64U | 0.129 |
| G27U A64C | 0.173 |
| G27A G29U | 0.126 |
| A26G A45C | 0.135 |
| G27A U70G | 0.227 |
| A26U U60A | 0.328 |
| A26U G69A | 0.203 |
| G27C A71C | 0.53 |
| A28G A45U | 0.201 |
| A26U C50U | 0.261 |
| G27C U53G | 0.169 |
| G27C U53A | 0.19 |

| Variant | self-cleavage |
| --- | --- |
| G27C C65U | 0.159 |
| A28U A31G | 0.325 |
| A28C A45C | 0.0427 |
| G27U A44C | 0.0839 |
| G27U A44G | 0.193 |
| A28G C46G | 0.134 |
| A26U A47U | 0.0699 |
| G27A G54C | 0.105 |
| G27C G56C | 0.134 |
| A28G C37G | 0.36 |
| A28G C37A | 0.504 |
| G27C U63C | 0.222 |
| G27C U63A | 0.174 |
| G27U U67A | 0.177 |
| A26G G57U | 0.252 |
| A26G C37A | 0.268 |
| G27C G40U | 0.0774 |
| A28U A39G | 0.143 |
| A28U A39U | 0.222 |
| G27A C38U | 0.2 |
| A26U A35U | 0.302 |
| A26U A35C | 0.846 |
| A26U A71G | 0.781 |
| A28U A30U | 0.136 |

| Variant | self-cleavage |
| --- | --- |
| A28C C50A | 0.151 |
| A28C C50G | 0.107 |
| G27A G57C | 0.184 |
| G27C C38A | 0.116 |
| G27A G40C | 0.104 |
| A26U U55G | 0.281 |
| A26U U55C | 0.23 |
| G27U A41U | 0.554 |
| G27U A41G | 0.305 |
| A28C C38A | 0.205 |
| A28C U70A | 0.468 |
| A28C U52G | 0.301 |
| G27U C66G | 0.126 |
| G27U C66U | 0.288 |
| A26U A45G | 0.168 |
| A26U A45U | 0.245 |
| G27A A71G | 0.545 |
| A26G U58G | 0.693 |
| A26G U58A | 0.755 |
| G27U U60G | 0.0793 |
| G27U U58C | 0.318 |
| G27C U62A | 0.205 |
| G27C A61U | 0.119 |
| A26C G29C | 0.136 |

| Variant | self-cleavage |
| --- | --- |
| A26C G29U | 0.109 |
| A26C G29A | 0.149 |
| A26U A36C | 0.343 |
| A26U A36U | 0.414 |
| G27C A44U | 0.0991 |
| G27C A44G | 0.21 |
| G27A A31U | 0.153 |
| G27A A31G | 0.221 |
| G27A A64U | 0.174 |
| A26C U63G | 0.0806 |
| A26G C66G | 0.353 |
| A28G G34C | 0.999 |
| A28G G34U | 1.65 |
| A26G A36U | 0.326 |
| A26G A36C | 0.474 |
| A26G A39U | 0.407 |
| G27C A39G | 0.0932 |
| A28C A61C | 0.122 |
| A26U U52G | 0.442 |
| A28U A49C | 0.18 |
| A28G C38U | 0.547 |
| A28G C38A | 0.168 |
| A28G C38G | 0.169 |
